From paper PMC4622713

Columns and labels:
[1] = biological target: CT-P13 (Remsima®, infliximab biosimilar); assay: ELISA
[2] = biological target: Remicade® (infliximab, reference medicinal product); assay: ELISA
FcRn = FcRn (UniProt P55899); assay: SPR
Chain of UniProt P55899 (P55899 whole entry, looked up, tested part not stated): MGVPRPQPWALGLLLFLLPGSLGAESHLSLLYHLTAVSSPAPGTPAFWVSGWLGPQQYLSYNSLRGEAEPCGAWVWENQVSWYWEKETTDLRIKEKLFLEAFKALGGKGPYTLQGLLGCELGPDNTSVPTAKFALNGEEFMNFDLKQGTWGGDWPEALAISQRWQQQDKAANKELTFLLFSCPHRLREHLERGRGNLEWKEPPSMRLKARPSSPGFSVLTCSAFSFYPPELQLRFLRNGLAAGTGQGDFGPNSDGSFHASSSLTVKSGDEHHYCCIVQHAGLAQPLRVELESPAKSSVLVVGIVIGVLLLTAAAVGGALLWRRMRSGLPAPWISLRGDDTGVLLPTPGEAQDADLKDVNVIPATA

| relative binding affinity, average (%) [1] | relative binding affinity, average (%) [2] | relative binding affinity, average (%) (FcRn) | Substance |
| --- | --- | --- | --- |
| 100% | 98% |  | C1q (complex) |
|  |  | 101% | CT-P13 (Remsima®, infliximab biosimilar) (antibody) |
|  |  | 97% | Remicade® (infliximab, reference medicinal product) (antibody) |
